The source of these data is patent US20050049403A1 (CAMBRIDGE ANTIBODY TECHNOLOGY, published 2005).

For experiment [1], the target named is T1, recombinant human TGFβ2 (human, UniProt P61812 303-414).
T1 construct: mature; also called TGFbeta2; rhTGFβ2
T1 sequence (looked up): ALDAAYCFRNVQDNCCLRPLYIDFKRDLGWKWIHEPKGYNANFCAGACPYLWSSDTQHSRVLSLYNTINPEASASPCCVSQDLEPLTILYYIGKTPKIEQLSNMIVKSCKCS
The experiment is described as follows: BIACore, scFv. As to the method:
(§1) The off-rates for binding to TGFβ1 or TGFβ2 of the single chain Fv fragments described in this example were determined as described by Karlsson et al (R. Karlsson et al, J. Immunol. Methods 145, 229-240, 1991). The results obtained are shown in Table 2, together with dissociation constants for those which have been determined.
In general terms: In SPR one partner is held on a chip, and binding of the other changes the refractive index at the surface.

Experiment [2] concerns the target T1, recombinant human TGFβ2. The experiment is described as follows: cell-based or functional assay.
Experiment [3] addresses T2, recombinant human TGFβ1 (human, UniProt P01137 279-390).
T2 construct: mature; also called TGFbeta1
The experiment is described as follows: BIACore, scFv injected over immobilised antigen. The method, then:
(§2) The antibodies were also shown to be specific for TGFβ2 compared to TGFβ1 by relative binding to theBIACore sensor chips coated with the appropriate antigen. TGFβ1 and TGFβ2 were immobilised by amine coupling to Biosensor CM5 sensorchips (Pharmacia) according to the manufacturers instructions. […] The amount of TGFβ bound was assessed as the total increase in resonance units (RUs) over this period.

Experiment [4] deals with T1, recombinant human TGFβ2. The experiment is described as follows: BIACore, scFv injected over immobilised antigen. The method, then:
as §2

Experiment [5] has as its target T1, recombinant human TGFβ2. Briefly: radioreceptor assay, inhibition of 125I-TGFβ2 binding to A549 cells; concentration of antibody combining sites. As to the method: (§3) Cells are seeded at 1-2×10^5 cells/ml/well into the wells of 24-well cluster plates and grown for 24 h in serum-free DMEM. Cell monlayers are washed twice with serum-free DMEM and 0.5 ml binding medium (DMEM/Hams F12 (Sigma D-6421) containing 0.1% (v/v) BSA added to each well.
(§4) Aliqouts of ¹²⁵I-TGFβ1 or TGFβ2 (70-90 TBq/mmol; Amersham International) at 20 pM are preincubated with antibody in binding medium at room temperature for 1 h. Duplicate samples of 0.5 ml of TGFβ/antibody mixtures are then added to the cell monlayers and are incubated at 37° C. for 1-2 h. Control wells contain TGFβ only. Unbound TGFβ is removed by washing 4 times with Hank's balanced salt solution containing 0.1% BSA. Cells are solubilised in 0.8 ml 25 mM Tris HCl pH 7.5, 10% glycerol, 1% Triton X-100 at room temperature for 20 min. The contents of each well are removed and ¹²⁵I measured in a gamma counter.

The target of experiment [6] is T2, recombinant human TGFβ1. Briefly: BIACore, scFv. As to the method: as §1
In experiment [7] the target is T2, recombinant human TGFβ1. Briefly: radioreceptor assay, inhibition of 125I-TGFβ1 binding to A549 cells; concentration of antibody combining sites. As to the method: as §3, §4
Experiment [8] deals with T1, recombinant human TGFβ2. The experiment is described as follows: BIAcore 2000, koff divided by kon. As to the method:
(§5) To determine the kinetic parameters, a series of dilutions of the antibody samples was made in HBS from about 500 μg/ml down to less than 1 μg/ml, usually through doubling dilutions. After the antibody has been injected over the antigen surface, the surface is washed with HBS, then regenerated by stripping off the bound antibody with a pulse of 100 mM HCl. At the higher concentrations of antibody the antigen on the chip surface is saturated, and the off rate is determined on washing with buffer in the dissociation phase. For determination of the on-rate, lower concentrations of antibody are used, giving a linear binding phase in the sensorgram, allowing kₒₙ determination.
(§6) 6B1 IgG4 was purified from the GS/NS0 cell line of Example 10 as in Example 2. 6B1 single chain Fv was expressed intracellularly in E. coli, refolded in vitro (using the methodology of WO94/18227), and purified to give a homogeneous product. The values of kₒₙ and koff were determined for 6B1 IgG4 for binding to both TGFβ2 and TGFβ3, and for the single-chain Fv 6B1 for binding to TGFβ2. The dissociation constant was calculated by dividing koff by kₒₙ.

Experiment [9] addresses T1, recombinant human TGFβ2. The experiment is described as follows: BIAcore 2000, antigen immobilised, antibody as analyte. As to the method: The immobilisation of ligand is automated by the BIACore 2000 machine, and all steps are carried out in the autosampler or in the flowcell, on the dextran surface of the chip. The buffer used throughout the immobilisation procedure, and the analysis of samples is Hepes-buffered saline (HBS) with a surfactant (Pharmacia Biosensor). The chips (Pharmacia, CM5), have dextran coating on a thin layer of gold. NHS at 100 mM and EDC at 400 mM are mixed by the autosampler, and then a fixed volume is injected over the flowcell surface. This is followed by an injection of antigen in a suitable buffer. In the case of TGFβ, a surface of the correct density was given by using 25-30 μg/ml solution of TGFβ2 (AMS) OR TGFβ3 (R & D systems) in 10 mM acetate. After injection of the ligand, the chip is blocked using 1M ethanolamine. The total amount of TGFβ bound was assessed from the total increase in resonance units over this period.
as §5, §6

Experiment [10] deals with T2, recombinant human TGFβ1. The experiment is described as follows: radioreceptor assay, inhibition of 125I-TGFβ1 binding to A549 cells, Example 9.

By koff is commonly meant a measure of how fast the partners let go of each other. A word on the IC50: it is the concentration at which inhibition is half-maximal. The term Kd denotes the constant that tells how readily two partners part at equilibrium. As usually defined, the kon is a measure of how fast the partners come together.

T2 sequence (P01137 279-390 limits assumed): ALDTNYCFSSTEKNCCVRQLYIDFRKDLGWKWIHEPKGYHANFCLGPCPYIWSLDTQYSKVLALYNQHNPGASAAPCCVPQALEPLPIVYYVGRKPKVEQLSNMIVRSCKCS

B1: 14F12 scFv (scFv)
scFv: EIQLVESGGGVVQPGRSLRLSCAASGFTFSSYAMHWVRQAPAKGLEWVAVISYDGSNKYYADSVKGRFTISRDNSKNTLYLQMNSLRAEDTAVYYCARAGLETTWGQGTLVTVSSSGGGGGSGGGGSGGGGSSSELTQDPAVSVALGQTVRITCQGDSLRNYYANWYQQKPGQAPVLVIYGKNNRPSGIPDRFSGSSSGNTASLTITGARAEDEGVYYCNSRDSSGAVFGGGTKLTVLG
For B1, in experiment [1], the koff stood at 0.0021 s⁻¹. For the same molecule, the “I.C.50 in TF1 assay (neutralisation of TGFβ2 inhibition of TF1 cell proliferation)” value in experiment [2] turned out to be 90 nM. Moreover, the “increase in resonance units” value is 616 RU in experiment [3] and 115 RU in experiment [4]. In addition, the half-maximal inhibitory concentration (IC50) in experiment [5] turned out to be 3 nM.

B2: 6H1 scFv (scFv)
scFv: EVQLVESGGGVVQPGRSLRLSCAASGFTFSSYGMHWVRQAPGKGLEWVAVIWYDGSNKYYADSVKGRFTISRDNSKNTLYLQMDSLRAEDTAVYYCGRTLESSLWGQGTLVTVSSGGGGSGGGGSGGGGSDVVMTQSPSSLSASVGDRVTITCRASQGISNYLAWYQQKPGKAPKLLIYKASTLESGVPSRFSGSGSGTEFTLTISSLQPEDFATYYCQQSYSTPRTFGQGTKVDIKR
As to B2, in experiment [1], the koff was determined as 0.0011 s⁻¹. Besides, in experiment [2], the “I.C.50 in TF1 assay (neutralisation of TGFβ2 inhibition of TF1 cell proliferation)” value is 1.5 nM. Besides, the figures for the “increase in resonance units” value in experiment [3] and in [4] were 686 RU and 77 RU, respectively. For the same molecule, the half-maximal inhibitory concentration (IC50) in experiment [5] stood at 0.22 nM.

B3: 31G9 scFv (scFv)
scFv: QVQLVQSGGGVVQPGRSLRLSCAASGFTFSSYGMHWVRQAPGKGLEWVAVISYDGSIKYYADSVKGRFTISRDNSKNTLYLQMNSLRAEDTAVYYCARTGEYSGYDTSGVELWGQGTTVTVSSGGGGSGGGGSGGGGSDIVMTQSPSTLSASVGDRVTITCRASQGISSWLAWYQQKPGRAPKVLIYKASTLESGVPSRFSGSGSGTDFTLTISSLQPEDFATYYCQQSYSTPWTFGQGTKLEIKR
notes: VH-linker-VL in pCANTAB6; also called 31G9 single chain Fv
For B3, in experiment [6], the Kd came out at 12 nM and the off-rate constant (koff) was 0.0009 s⁻¹. The IC50 in experiment [7] was 30 nM.

B4: CS39 scFv (scFv)
scFv: QVQLVQSGGGVVQPGRSLRLSCAASGFTFSSYGMHWVRQAPGKGLEWVAVISYDGSIKYYADSVKGRFTISRDNSKNTLYLQMNSLRAEDTAVYYCARTGEYSGYDTSGVELWGQGTTVTVSSGGGGSGGGGSGGGGSDVVMTQSPSSLSASVGDRVTITCRASQGISNYLAWYQQKPGKAPKLLIYKASTLESGVPSRFSGSGSGTEFTLTISSLQPEDFATYYCQQSYSTPRTFGQGTKVDIKR
B4: the dissociation rate constant (koff) in [6] was 0.0017 s⁻¹. The IC50 in experiment [7] is roughly 60 nM.

B5: 6B1 scFv (scFv)
scFv: EVQLVESGGGVVQPGRSLRLSCAASGFTFSSYGMHWVRQAPGKGLEWVAVIWYDGSNKYYADSVKGRFTISRDNSKNTLYLQMDSLRAEDTAVYYCGRTLESSLWGQGTLVTVSSGGGGSGGGGSGGGGSSSELTQDPAVSVALGQTVRITCQGDSLRSYYASWYQQKPGQAPVLVIYGKNNRPSGIPDRFSGSSSGNTASLTITGAQAEDEADYYCNSRDSSSTHRGVFGGGTKLTVLG
notes: also called 6B1 single chain Fv
Turning to B5, in experiment [1], the koff stood at 0.0006 s⁻¹. Moreover, the “I.C.50 in TF1 assay (neutralisation of TGFβ2 inhibition of TF1 cell proliferation)” value in experiment [2] worked out at 15 nM. Besides, in experiment [8], the dissociation constant Kd was 2.32 nM. In experiment [9], the koff was determined as 0.000668 s⁻¹ and the on-rate constant (kon) amounted to 287000 M⁻¹ s⁻¹. Also, the IC50 in experiment [5] was 0.3 nM.

B6: 11E6 IgG (antibody, V domains shown)
VH: EIQLVESGGGVVQPGRSLRLSCAASGFTFSSYAMHWVRQAPAKGLEWVAVISYDGSNKYYADSVKGRFTISRDNSKNTLYLQMNSLRAEDTAVYYCARAGLETTWGQGTLVTVSS
VL: EVVLTQSPSSLSASVGDRVTITCRASQGIGDDLGWYQQKPGKAPILLIYGTSTLQSGVPSRFSGSGSGTDFTLTINSLQPEDFATYYCLQDSNYPLTFGGGTRLEIKR
notes: its construction as a whole antibody is not described
Take B6: in experiment [5], the IC50 amounted to 1.6 nM.

B7: 6A5 scFv (scFv)
scFv: EVQLVESGGGVVQPGRSLRLSCAASGFTFSSYGMHWVRQAPGKGLEWVAVIWYDGSNKYYADSVKGRFTISRDNSKNTLYLQMDSLRAEDTAVYYCGRTLESSLWGQGTLVTVSSGGGGSGGGGSGGGGSSSELTQDPAVSVALGQTVRITCQGDSLRSYYASWYQQKPGQAPVLVIYGKNNRPSGIPDRFAGSNSGNTASLTITGAQAEDEADYYCSSRDSSGNHVVFGGGTKLTVLG
notes: also called 6A5 single chain Fv
For B7, in [1], the dissociation constant Kd is 0.7 nM and the koff is 0.00014 s⁻¹. Also, the “I.C.50 in TF1 assay (neutralisation of TGFβ2 inhibition of TF1 cell proliferation)” value in [2] is 8 nM. Besides, the “increase in resonance units” value in [3] turned out to be 480 RU. In experiment [4], the “increase in resonance units” value was 71 RU. Also, in [5], the half-maximal inhibitory concentration (IC50) was 1.5 nM.

B8: CS37 scFv (scFv)
scFv: QVQLVQSGGGVVQPGRSLRLSCAASGFTFSSYGMHWVRQAPGKGLEWVAVISYDGSIKYYADSVKGRFTISRDNSKNTLYLQMNSLRAEDTAVYYCARTGEYSGYDTSGVELWGQGTTVTVSSGGGGSGGGGSGGGGSEIVLTQSPSSLSASVGDRVTITCRASQGIGDDLGWYQQKPGKAPILLIYGTSTLQSGVPSRFSGSGSGTDFTLTINSLQPEDFATYYCLQDSNYPLTFGGGTRLEIKR
As to B8, in experiment [10], the IC50 was roughly 8 nM.

B9: 7A3 scFv (scFv)
scFv: QVQLVESGGGVVQPGRSLRLSCAASGFTFSSYGMHWVRQAPGKGLEWVAVISYDGSNKYYADSVKGRFTISRDNSKNTLYLQMNSLRAEDTAVYYCAKTGEYSGYDSSGVDVWGKGTTVTVSSGGGGSGGGGSGGGGSDIVMTQSPDSLAVSLGERATINCKSSQSLLYSYNKMNYLAWYQQKPGQPPKLLINWASTRESGVPDRFSGSGSGTDFTLTISSLQAEDVAVYYCQQYYATPLTFGHGTKVEIKR
notes: Light chain shuffle of 1-B2
As for B9, the 50% inhibitory concentration (IC50) in experiment [7] is greater than 100 nM.

B10: CS32 scFv (scFv)
scFv: QVQLVQSGGGVVQPGRSLRLSCAASGFTFSSYGMHWVRQAPGKGLEWVAVISYDGSIKYYADSVKGRFTISRDNSKNTLYLQMNSLRAEDTAVYYCARTGEYSGYDTSGVELWGQGTTVTVSSGGGGSGGGGSGGGGSDIVMTQSPDSLAVSLGERATINCKSSQSLLYSYNKMNYLAWYQQKPGQPPKLLINWASTRESGVPDRFSGSGSGTDFTLTISSLQAEDVAVYYCQQYYATPLTFGHGTKVEIKR
Consider B10, for which the off-rate (koff) in experiment [6] worked out at 0.0012 s⁻¹. Moreover, the IC50 amounted to 40 nM in experiment [10] and 4.5 nM in experiment [7].
